Source: patent publication US20250082770A1 (SYNAFFIX B V, published 2025)

B1: tusamitamab-DM4 (antibody, human IgG1, kappa, V domains shown)
VH: EVQLQESGPGLVKPGGSLSLSCAASGFVFSSYDMSWVRQTPERGLEWVAYISSGGGITYAPSTVKGRFTVSRDNAKNTLYLQMNSLTSEDTAVYYCAAHYFGSSGPFAYWGQGTLVTVSS
VL: DIQMTQSPASLSASVDRVTITCRASENIFSYLAWYQQKPGKSPKLLVYNTRTLAEGVPSRFSGSGSGTDFSLTISSLQPEDFATYYCQHHYGTPFTFGSGTKLEIKR
modifications: SPDB-DM4 conjugated, sites not stated; average DAR 3.4
B2: tusamitamab (antibody, human IgG1, kappa, V domains shown)
VH: EVQLQESGPGLVKPGGSLSLSCAASGFVFSSYDMSWVRQTPERGLEWVAYISSGGGITYAPSTVKGRFTVSRDNAKNTLYLQMNSLTSEDTAVYYCAAHYFGSSGPFAYWGQGTLVTVSS
VL: DIQMTQSPASLSASVDRVTITCRASENIFSYLAWYQQKPGKSPKLLVYNTRTLAEGVPSRFSGSGSGTDFSLTISSLQPEDFATYYCQHHYGTPFTFGSGTKLEIKR
notes: IgG transiently expressed in CHO K1 cells; also called tusamitamab (I); huMAb2-3
B3: tusamitamab-3 (antibody, human IgG1, kappa, V domains shown)
VH: EVQLQESGPGLVKPGGSLSLSCAASGFVFSSYDMSWVRQTPERGLEWVAYISSGGGITYAPSTVKGRFTVSRDNAKNTLYLQMNSLTSEDTAVYYCAAHYFGSSGPFAYWGQGTLVTVSS
VL: DIQMTQSPASLSASVDRVTITCRASENIFSYLAWYQQKPGKSPKLLVYNTRTLAEGVPSRFSGSGSGTDFSLTISSLQPEDFATYYCQHHYGTPFTFGSGTKLEIKR
modifications: heavy-chain glycan trimmed to core GlcNAc, 6-N3-GalNAc attached and reacted with BCN-HS-PEG2-HS-(va-PAB-Ex)2 3 (exatecan payload); average DAR 3.89
B4: tusamitamab-6 (antibody, human IgG1, kappa, V domains shown)
VH: EVQLQESGPGLVKPGGSLSLSCAASGFVFSSYDMSWVRQTPERGLEWVAYISSGGGITYAPSTVKGRFTVSRDNAKNTLYLQMNSLTSEDTAVYYCAAHYFGSSGPFAYWGQGTLVTVSS
VL: DIQMTQSPASLSASVDRVTITCRASENIFSYLAWYQQKPGKSPKLLVYNTRTLAEGVPSRFSGSGSGTDFSLTISSLQPEDFATYYCQHHYGTPFTFGSGTKLEIKR
modifications: heavy-chain glycan trimmed to core GlcNAc, 6-N3-GalNAc attached and reacted with BCN-HS-PEG2-HS-(vc-PABA-Ahx-May)2 6 (maytansinoid payload); average DAR 3.85
B5: labetuzumab-3 (antibody, human IgG1, kappa, V domains shown)
VH: EVQLVESGGGVVQPGRSLRLSCSASGFDFTTYWMSWVRQAPGKGLEWIGEIHPDSSTINYAPSLKDRFTISRDNAKNTLFLQMDSLRPEDTGVYFCASLYFGFPWFAYWGQGTPVTVSS
VL: DIQLTQSPSSLSASVGDRVTITCKASQDVGTSVAWYQQKPGKAPKLLIYWTSTRHTGVPSRFSGSGSGTDFTFTISSLQPEDIATYYCQQYSLYRSFGQGTKVEIKR
modifications: heavy-chain glycan trimmed to core GlcNAc, 6-N3-GalNAc attached and reacted with BCN-HS-PEG2-HS-(va-PAB-Ex)2 3 (exatecan payload); average DAR 3.90
B6: labetuzumab (antibody, human IgG1, kappa, V domains shown)
VH: EVQLVESGGGVVQPGRSLRLSCSASGFDFTTYWMSWVRQAPGKGLEWIGEIHPDSSTINYAPSLKDRFTISRDNAKNTLFLQMDSLRPEDTGVYFCASLYFGFPWFAYWGQGTPVTVSS
VL: DIQLTQSPSSLSASVGDRVTITCKASQDVGTSVAWYQQKPGKAPKLLIYWTSTRHTGVPSRFSGSGSGTDFTFTISSLQPEDIATYYCQQYSLYRSFGQGTKVEIKR
notes: IgG transiently expressed in CHO K1 cells; also called labetuzumab (II); hMN-14
B7: B12-3 (antibody, human IgG1, kappa, V domains shown)
VH: QVQLVQSGAEVKKPGASVKVSCQASGYRFSNFVIHWVRQAPGQRFEWMGWINPYNGNKEFSAKFQDRVTFTADTSANTAYMELRSLRSADTAVYYCARVGPYSWDDSPQDNYYMDVWGKGTTVIVSS
VL: EIVLTQSPGTLSLSPGERATFSCRSSHSIRSRRVAWYQHKPGQAPRLVIHGVSNRASGISDRFSGSGSGTDFTLTITRVEPEDFALYYCQVYGASSYTFGQGTKLERKR
modifications: heavy-chain glycan trimmed to core GlcNAc, 6-N3-GalNAc attached and reacted with BCN-HS-PEG2-HS-(va-PAB-Ex)2 3 (exatecan payload); average DAR 3.75

Tests used:
CEACAM5 on MKN-45 cells = biological target: T1, CEACAM5 on MKN-45 cells (UniProt P06731 35-702, limits assumed); experiment: cell-based or functional assay
T1 sequence (looked up): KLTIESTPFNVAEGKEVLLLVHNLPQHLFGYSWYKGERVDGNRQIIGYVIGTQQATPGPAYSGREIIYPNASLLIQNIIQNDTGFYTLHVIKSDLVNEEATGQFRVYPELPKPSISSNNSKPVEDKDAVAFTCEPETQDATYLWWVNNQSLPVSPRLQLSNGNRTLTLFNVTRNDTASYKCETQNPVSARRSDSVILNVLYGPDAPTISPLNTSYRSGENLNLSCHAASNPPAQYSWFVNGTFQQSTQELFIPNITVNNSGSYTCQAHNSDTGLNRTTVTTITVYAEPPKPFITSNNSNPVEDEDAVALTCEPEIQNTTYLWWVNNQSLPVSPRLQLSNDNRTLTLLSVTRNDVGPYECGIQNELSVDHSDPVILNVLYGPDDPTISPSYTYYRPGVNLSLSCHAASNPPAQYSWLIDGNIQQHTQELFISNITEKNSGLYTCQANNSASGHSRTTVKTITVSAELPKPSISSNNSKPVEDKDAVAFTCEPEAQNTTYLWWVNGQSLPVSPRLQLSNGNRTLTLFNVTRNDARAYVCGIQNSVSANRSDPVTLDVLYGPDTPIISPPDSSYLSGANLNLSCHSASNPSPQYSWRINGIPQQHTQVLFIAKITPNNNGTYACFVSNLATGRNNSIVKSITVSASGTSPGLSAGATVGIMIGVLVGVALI

[1] = biological target: T2, human CEACAM6 (CD66c protein, His Tag, Sino Biological) (human, UniProt P40199 35-320); experiment: ELISA, His-tagged antigen on nickel NTA plate, anti-human IgG-HRP detection
T2 construct: Bought His-tagged protein captured on nickel NTA plates; also called hCEACAM6; hCD66c; not shown: His tag
T2 sequence (looked up): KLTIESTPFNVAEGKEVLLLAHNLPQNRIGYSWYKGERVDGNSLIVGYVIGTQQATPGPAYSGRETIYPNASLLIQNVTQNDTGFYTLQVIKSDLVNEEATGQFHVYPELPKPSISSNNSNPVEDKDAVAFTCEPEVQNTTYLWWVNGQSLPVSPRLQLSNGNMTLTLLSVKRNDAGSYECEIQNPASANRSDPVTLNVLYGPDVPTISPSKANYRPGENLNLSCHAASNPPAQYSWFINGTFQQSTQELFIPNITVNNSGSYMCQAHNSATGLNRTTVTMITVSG
Method: (§1) Nickel NTA plates (Pierce™ Nickel coated plated, ThermoScientific™) were washed three times prior to use. Human CEACAM5 (CD66e protein, His Tag, Sino Biological), human CEACAM6 (CD66c protein, His Tag, Sino Biological) and cynomolgus CEACAM5 (CD66e protein, His Tag, Sino Biological) were dissolved at a concentration of 0.05 μg/mL in 0.1% BSA in PBS (PBA). 100 μL was added to each well and incubated while shaking for 1 hour at room temperature. After removal, the plate was washed 3× with 0.05% Tween-20 in PBS (washing buffer). ADCs were diluted in 0.1% PBA to a final concentration of 8 μg/mL and 100 μL was added to each well (in triplo). ADCs were incubated for 1 h at room temperature. Prior to the addition of 100 μL 1:100 dilution of secondary antibody (Goat anti-human IgG, HRP conjugate, Invitrogen) the plate was washed 3× with washing buffer. The plate was incubated again for 1 h at room temperature and subsequently washed 3× with washing buffer and 3× with PBS. Finally, 100 μL TMB ELISA substrate (1 Step™ Turbo TMB ELISA substrate, ThermoScientific™) was added and incubated for 1 minute. The absorbance of the colorimetric signal was measured with Infinite® M1000 (Tecan) at 605 nm. Data was plotted corrected for the background (see FIGS. 9).

[2] = biological target: T3, Human CEACAM5 (CD66e protein, His Tag, Sino Biological) (human, UniProt P06731 35-685); experiment: as above
T3 construct: Bought His-tagged protein captured on nickel NTA plates; also called hCEACAM5; hCD66e; not shown: His tag
T3 sequence (looked up): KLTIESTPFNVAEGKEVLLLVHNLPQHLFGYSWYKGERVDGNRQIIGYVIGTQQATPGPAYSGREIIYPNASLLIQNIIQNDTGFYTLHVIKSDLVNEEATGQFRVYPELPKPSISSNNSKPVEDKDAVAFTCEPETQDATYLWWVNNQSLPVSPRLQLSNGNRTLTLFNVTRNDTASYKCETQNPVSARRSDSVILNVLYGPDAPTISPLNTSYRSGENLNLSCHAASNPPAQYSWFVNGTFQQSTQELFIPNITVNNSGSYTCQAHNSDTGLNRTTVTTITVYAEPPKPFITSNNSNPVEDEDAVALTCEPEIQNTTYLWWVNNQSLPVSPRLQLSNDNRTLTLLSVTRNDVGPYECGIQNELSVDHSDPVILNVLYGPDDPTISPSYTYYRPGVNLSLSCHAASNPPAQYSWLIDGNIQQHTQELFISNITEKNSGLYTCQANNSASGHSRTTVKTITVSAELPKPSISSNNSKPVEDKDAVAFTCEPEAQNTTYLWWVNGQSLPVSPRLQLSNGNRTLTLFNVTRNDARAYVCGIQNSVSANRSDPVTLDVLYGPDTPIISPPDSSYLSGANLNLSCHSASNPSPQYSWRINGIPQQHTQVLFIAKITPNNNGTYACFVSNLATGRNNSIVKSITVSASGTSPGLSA
Method: as §1

Binder	MKN-45, IC50 (CEACAM5 on MKN-45 cells) [nM]	binding result [1]	binding result [2]
B1	2.6		
B2		no binding (tested: 8 µg/mL)	
B3	3.4		
B4	0.88		
B5	6.5		
B6		no binding (tested: 8 µg/mL)	binds
B7	> 100		
